Laboratory results taken from patent US20090192112A1 (REGENTS OF THE UNIVERSITY OF MICHIGAN, published 2009).

How the values were obtained:
disheveled-3 (Dvl-3) = biological target: T1, disheveled-3 (Dvl-3) (human, UniProt Q92997 1-716, limits assumed); test: co-IP, BxPC3 lysate
T1 construct: Endogenous protein in cell lysate
T1 sequence (looked up): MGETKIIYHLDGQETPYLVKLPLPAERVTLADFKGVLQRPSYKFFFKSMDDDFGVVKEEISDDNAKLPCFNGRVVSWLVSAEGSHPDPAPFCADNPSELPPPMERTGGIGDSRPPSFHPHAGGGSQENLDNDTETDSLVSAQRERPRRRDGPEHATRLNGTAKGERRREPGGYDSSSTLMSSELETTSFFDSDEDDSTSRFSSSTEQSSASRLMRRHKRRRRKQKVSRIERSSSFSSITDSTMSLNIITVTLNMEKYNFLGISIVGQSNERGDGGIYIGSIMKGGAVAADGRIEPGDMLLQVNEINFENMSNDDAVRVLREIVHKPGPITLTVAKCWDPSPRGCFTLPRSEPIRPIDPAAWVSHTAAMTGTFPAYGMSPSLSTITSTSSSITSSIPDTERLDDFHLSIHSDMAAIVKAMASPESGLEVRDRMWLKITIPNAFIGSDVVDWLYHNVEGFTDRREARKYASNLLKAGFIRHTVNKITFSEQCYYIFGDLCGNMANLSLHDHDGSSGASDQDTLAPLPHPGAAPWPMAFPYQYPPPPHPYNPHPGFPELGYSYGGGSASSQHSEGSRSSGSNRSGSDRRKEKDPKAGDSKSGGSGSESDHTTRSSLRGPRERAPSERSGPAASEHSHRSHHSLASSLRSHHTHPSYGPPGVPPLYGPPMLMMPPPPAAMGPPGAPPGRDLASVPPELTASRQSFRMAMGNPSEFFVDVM

disheveled-1 (Dvl-1) = biological target: T2, disheveled-1 (Dvl-1) (human, UniProt O14640 1-695, limits assumed); test: co-IP, BxPC3 lysate
T2 construct: Endogenous protein in cell lysate
T2 sequence (looked up): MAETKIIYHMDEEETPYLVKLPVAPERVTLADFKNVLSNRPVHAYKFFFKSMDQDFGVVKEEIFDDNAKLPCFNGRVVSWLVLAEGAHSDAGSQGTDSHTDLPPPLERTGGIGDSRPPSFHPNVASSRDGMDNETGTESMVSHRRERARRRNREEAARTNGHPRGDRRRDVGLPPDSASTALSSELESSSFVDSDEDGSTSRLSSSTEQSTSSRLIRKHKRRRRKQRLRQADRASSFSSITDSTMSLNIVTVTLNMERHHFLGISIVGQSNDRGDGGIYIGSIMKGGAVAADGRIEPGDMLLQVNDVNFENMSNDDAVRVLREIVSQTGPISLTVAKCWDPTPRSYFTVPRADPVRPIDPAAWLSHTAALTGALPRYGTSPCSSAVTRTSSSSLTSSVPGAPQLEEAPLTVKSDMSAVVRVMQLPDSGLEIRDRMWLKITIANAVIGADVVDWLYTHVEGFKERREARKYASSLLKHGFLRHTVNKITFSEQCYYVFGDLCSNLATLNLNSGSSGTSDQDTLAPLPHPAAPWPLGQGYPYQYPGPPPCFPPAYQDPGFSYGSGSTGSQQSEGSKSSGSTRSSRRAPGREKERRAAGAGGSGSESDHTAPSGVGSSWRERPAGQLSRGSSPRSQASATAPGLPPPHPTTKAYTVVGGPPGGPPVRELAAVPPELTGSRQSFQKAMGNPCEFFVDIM

β-catenin = biological target: T3, β-catenin (human, UniProt P35222 2-781); test: co-IP with β-catenin antibody, anti-ATDC western blot, BxPC3 lysate
T3 construct: Endogenous protein in cell lysate; also called beta-catenin
T3 sequence (looked up): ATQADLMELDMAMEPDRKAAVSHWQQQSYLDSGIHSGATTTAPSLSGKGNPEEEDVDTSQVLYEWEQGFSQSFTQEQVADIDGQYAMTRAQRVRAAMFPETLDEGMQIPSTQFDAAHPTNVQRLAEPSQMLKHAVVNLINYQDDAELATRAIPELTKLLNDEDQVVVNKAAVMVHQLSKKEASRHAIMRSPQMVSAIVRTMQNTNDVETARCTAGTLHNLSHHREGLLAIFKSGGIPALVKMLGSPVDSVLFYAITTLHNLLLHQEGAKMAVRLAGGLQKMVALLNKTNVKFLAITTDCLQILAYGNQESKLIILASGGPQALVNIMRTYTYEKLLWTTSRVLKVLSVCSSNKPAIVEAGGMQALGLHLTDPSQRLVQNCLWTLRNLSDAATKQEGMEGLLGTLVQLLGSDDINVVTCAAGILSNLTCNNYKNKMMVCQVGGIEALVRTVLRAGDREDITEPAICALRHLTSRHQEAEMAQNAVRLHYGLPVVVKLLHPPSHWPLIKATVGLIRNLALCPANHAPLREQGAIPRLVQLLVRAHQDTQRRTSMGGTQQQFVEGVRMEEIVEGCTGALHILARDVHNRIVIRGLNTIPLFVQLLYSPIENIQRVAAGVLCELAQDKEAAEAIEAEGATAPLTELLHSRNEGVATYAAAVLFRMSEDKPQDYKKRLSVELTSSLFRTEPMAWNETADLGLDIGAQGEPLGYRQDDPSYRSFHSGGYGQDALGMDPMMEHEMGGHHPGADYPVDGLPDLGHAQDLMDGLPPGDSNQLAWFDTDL
Protocol: HEK 293 cells with or without stable transfection of ATDC and BxPC-3 cells were lysed by sonicating for 5 sec in 1 ml of detergent free lysis buffer (PBS, 5 mM EDTA, 0.02% sodium azide, 10 mM iodoacetamide, 1 mM PMSF and 2 μg leupeptin) at 4° C. […] Antibody conjugated beads were prepared by combining 1 μg of polyclonal antibodies with 30 μl of a 50% protein A-Sepharose bead slurry in 0.5 ml of ice-cold PBS for 1 hr at 4° C. in a tube rotator and then were washed two times with 1 ml of lysis buffer. The antibodies used for co-immunoprecipitation were: Dvl-2, β-catenin (Cell Signaling Technology, Beverly, Mass.), axin, and GSK3β (Upstate, Temecula, Calif.). Cell lysates (500 μg) was incubated with the prepared beads and 10 μl of 10% BSA overnight at 4° C. The beads were washed four times with washing buffer (50 mM Tris-Hcl [pH 7.4], 300 mM NaCl, 5 mM EDTA, 0.02% sodium azide, 0.1% Triton X-100) and one time with ice-cold PBS. […] Images were visualized using an ECL detection system.
To ascertain the mechanism by which ATDC stabilizes β-catenin, it was first examined whether ATDC interacts with the components of the multi-protein complex that regulates β-catenin stability.

Measured: binding result

B1: ATDC (Ataxia-Telangiectasia Group D Complementing Gene, also known as TRIM29), endogenous (other, UniProt Q14134 1-588, looked up)
chain: MEAADASRSNGSSPEARDARSPSGPSGSLENGTKADGKDAKTTNGHGGEAAEGKSLGSALKPGEGRSALFAGNEWRRPIIQFVESGDDKNSNYFSMDSMEGKRSPYAGLQLGAAKKPPVTFAEKGELRKSIFSESRKPTVSIMEPGETRRNSYPRADTGLFSRSKSGSEEVLCDSCIGNKQKAVKSCLVCQASFCELHLKPHLEGAAFRDHQLLEPIRDFEARKCPVHGKTMELFCQTDQTCICYLCMFQEHKNHSTVTVEEAKAEKETELSLQKEQLQLKIIEIEDEAEKWQKEKDRIKSFTTNEKAILEQNFRDLVRDLEKQKEEVRAALEQREQDAVDQVKVIMDALDERAKVLHEDKQTREQLHSISDSVLFLQEFGALMSNYSLPPPLPTYHVLLEGEGLGQSLGNFKDDLLNVCMRHVEKMCKADLSRNFIERNHMENGGDHRYVNNYTNSFGGEWSAPDTMKRYSMYLTPKGGVRTSYQPSSPGRFTKETTQKNFNNLYGTKGNYTSRVWEYSSSIQNSDNDLPVVQGSSSFSLKGYPSLMRSQSPKAQPQTWKSGKQTMLSHYRPFYVNKGNGIGSNEAP
notes: Endogenous protein in lysates of human pancreatic cancer cell lines (BxPC3, Panc-1); also called endogenous ATDC
no binding: all assays above
